Measured values published in the supplement of paper PMC10567573.

B1: TRAF3IP2 (parent)
chain: KEHVPTWLQNTHVYSWPKNKKNIL

Variants of: B1
Assay: protein stability index of a GFP-peptide fusion (GPS, HEK-293T) (PSI 1-6); higher = more stable
Settings: c terminus: a fixed tail appended
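Further: lentivirally expressed fusions sorted by FACS into six bins by GFP to DsRed ratio, PSI derived from sequencing read proportions per bin multiplied by bin number.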

Compared with KEHVPTWLQNTHVYSWPKNKKNPL [I23P], KEHVPTWLQNTHVYSWPKNKKNAL [I23A] is higher in protein stability index: 2.54 for the first, 2.89 for the second.

Going from KEHVPTWLQNTHVYSWPKNKKNCL [I23C] to KEHVPTWLQNTHVYSWPKNKKNFL [I23F], the protein stability index falls from 3.02 to 2.69.

First: KEHVPTWLQNTHVYSWPKNKKNKL [I23K]
Second: KEHVPTWLQNTHVYSWPKNKKNDL [I23D]
The protein stability index of the first is lower: 3.52 for the first, 3.75 for the second.

Compared with KEHVPTWLQNTHVYSWPKNKKNRL [I23R], KEHVPTWLQNTHVYSWPKNKKDIL [N22D] is lower in protein stability index: 3.74 for the first, 2.04 for the second.

Compared with KEHVPTWLQNTHVYSWPKNKKPIL [N22P], KEHVPTWLQNTHVYSWPKNKKEIL [N22E] is lower in protein stability index: 2.84 for the first, 2.64 for the second.

Going from KEHVPTWLQNTHVYSWPKNKKVIL [N22V] to KEHVPTWLQNTHVYSWPKNKKKIL [N22K], the protein stability index rises from 2.51 to 2.9.

First: KEHVPTWLQNTHVYSWPKNKKMIL [N22M]
Second: KEHVPTWLQNTHVYSWPKNKKHIL [N22H]
The protein stability index of the first is higher: 2.19 for the first, 2.08 for the second.

Compared with KEHVPTWLQNTHVYSWPKNKKIIL [N22I], KEHVPTWLQNTHVYSWPKNKKAIL [N22A] is higher in protein stability index: 1.5 for the first, 2.41 for the second.

First: KEHVPTWLQNTHVYSWPKNKKFIL [N22F]
Second: KEHVPWWLQNTHVYSWPKNKKNIL [T6W]
The protein stability index of the first is higher: 1.67 for the first, 1.53 for the second.

Going from KEHVPRWLQNTHVYSWPKNKKNIL [T6R] to KEHVPMWLQNTHVYSWPKNKKNIL [T6M], the protein stability index falls from 2.23 to 2.22.

Going from KEHVPSWLQNTHVYSWPKNKKNIL [T6S] to KEHVPQWLQNTHVYSWPKNKKNIL [T6Q], the protein stability index falls from 2.88 to 2.51.

First: KEHVPNWLQNTHVYSWPKNKKNIL [T6N]
Second: KEHVPFWLQNTHVYSWPKNKKNIL [T6F]
The protein stability index of the first is higher: 3.38 for the first, 1.93 for the second.

Compared with KEHVPTWLQNTHVYSWPKNHKNIL [K20H], KEHVPTWLQNTHVYSWPKNVKNIL [K20V] is lower in protein stability index: 2.21 for the first, 1.99 for the second.

Compared with KEHVPTWLQNTHVYSWPKNGKNIL [K20G], KEHVPTWLQNTHVYSWPKNDKNIL [K20D] is higher in protein stability index: 2.18 for the first, 2.31 for the second.

Compared with KEHVPTWLQNTHVYSWPKNRKNIL [K20R], KEHVPTWLQNTHVYSWPKNCKNIL [K20C] is lower in protein stability index: 2.29 for the first, 1.89 for the second.

First: KEHVPTWLQNTHVYSWPKNYKNIL [K20Y]
Second: KEHVPTWLQNTHVYSWPKNTKNIL [K20T]
The protein stability index of the first is lower: 1.81 for the first, 2.96 for the second.

First: KEHVPTWLQNTHVYSWPKNAKNIL [K20A]
Second: KEHVPTWLQNTHVYSWPKNMKNIL [K20M]
The protein stability index of the first is higher: 1.94 for the first, 1.58 for the second.

First: KEHVPTWLQNTHVYSWPKNQKNIL [K20Q]
Second: KEHVPTWLQNTHVYSRPKNKKNIL [W16R]
The protein stability index of the first is lower: 2.25 for the first, 3.9 for the second.

Going from KEHVPTWLQNTHVYSVPKNKKNIL [W16V] to KEHVPTWLQNTHVYSYPKNKKNIL [W16Y], the protein stability index rises from 2.88 to 3.

Going from KEHVPTWLQNTHVYSAPKNKKNIL [W16A] to KEHVPTWLQNTHVYSTPKNKKNIL [W16T], the protein stability index rises from 3.35 to 3.68.

Going from KEHVPTWLQNTHVYSIPKNKKNIL [W16I] to KEHVPTWLQNTHVYSFPKNKKNIL [W16F], the protein stability index falls from 3.05 to 2.7.

Going from KEHVPTWLQNTHVYSGPKNKKNIL [W16G] to KEHVPTWLQNTHVYSKPKNKKNIL [W16K], the protein stability index falls from 3.55 to 2.81.

First: KEHVPTWLQNTHEYSWPKNKKNIL [V13E]
Second: KEHVPTWLQNTHKYSWPKNKKNIL [V13K]
The protein stability index of the first is lower: 2.52 for the first, 3.2 for the second.

Going from KEHVPTWLQNTHLYSWPKNKKNIL [V13L] to KEHVPTWLQNTHFYSWPKNKKNIL [V13F], the protein stability index rises from 2.44 to 2.65.

First: KEHVPTWLENTHVYSWPKNKKNIL [Q9E]
Second: KEHVPTWLGNTHVYSWPKNKKNIL [Q9G]
The protein stability index of the first is higher: 2.68 for the first, 2.66 for the second.

Compared with KEHVPTWLPNTHVYSWPKNKKNIL [Q9P], KEHVPTWLYNTHVYSWPKNKKNIL [Q9Y] is lower in protein stability index: 2.81 for the first, 2.39 for the second.

First: KEHVPTWLTNTHVYSWPKNKKNIL [Q9T]
Second: KEHVPTWLQNTHVYSWPENKKNIL [K18E]
The protein stability index of the first is lower: 2.8 for the first, 2.88 for the second.

Going from KEHVPTWLQNTHVYSWPNNKKNIL [K18N] to KEHVPTWLQNTHVYSWPWNKKNIL [K18W], the protein stability index falls from 2.81 to 1.91.

Going from KEHVPTWLQNTHVYSWPANKKNIL [K18A] to KEHVPTWLQNTHVYSWPRNKKNIL [K18R], the protein stability index rises from 2.66 to 3.38.

Compared with KEHVPTWLQNTHVYSWPLNKKNIL [K18L], KEHVPTWLQNTHVNSWPKNKKNIL [Y14N] is higher in protein stability index: 2.41 for the first, 3.24 for the second.

Going from KEHVPTWLQNTHVVSWPKNKKNIL [Y14V] to KEHVPTWLQNTHVCSWPKNKKNIL [Y14C], the protein stability index falls from 2.69 to 2.63.

Going from KEHVPTWLQNTHVSSWPKNKKNIL [Y14S] to KEHVPTWLQNTHVGSWPKNKKNIL [Y14G], the protein stability index falls from 3.4 to 3.05.

First: KEHVPTWLQNTHVHSWPKNKKNIL [Y14H]
Second: KEHVPTWLQNTHVQSWPKNKKNIL [Y14Q]
The protein stability index of the first is higher: 3.46 for the first, 3.06 for the second.

First: KEHVPTWLQNTHVTSWPKNKKNIL [Y14T]
Second: KEHVPTWLQNTHVISWPKNKKNIL [Y14I]
The protein stability index of the first is lower: 3 for the first, 3.71 for the second.

Going from KEHVPTGLQNTHVYSWPKNKKNIL [W7G] to KEHVPTKLQNTHVYSWPKNKKNIL [W7K], the protein stability index falls from 3.99 to 3.34.

First: KEHVPTNLQNTHVYSWPKNKKNIL [W7N]
Second: KEHVPTVLQNTHVYSWPKNKKNIL [W7V]
The protein stability index of the first is lower: 3.63 for the first, 3.82 for the second.

Compared with KEHVPTTLQNTHVYSWPKNKKNIL [W7T], KEHVPTFLQNTHVYSWPKNKKNIL [W7F] is lower in protein stability index: 3.84 for the first, 2.82 for the second.

Going from KEHVPTCLQNTHVYSWPKNKKNIL [W7C] to KEHVPTQLQNTHVYSWPKNKKNIL [W7Q], the protein stability index falls from 3.75 to 3.74.

First: KEHVPTELQNTHVYSWPKNKKNIL [W7E]
Second: KEHVPTLLQNTHVYSWPKNKKNIL [W7L]
The protein stability index of the first is higher: 3.97 for the first, 3.2 for the second.

Compared with KVHVPTWLQNTHVYSWPKNKKNIL [E2V], KDHVPTWLQNTHVYSWPKNKKNIL [E2D] is higher in protein stability index: 2.15 for the first, 2.47 for the second.

Compared with KRHVPTWLQNTHVYSWPKNKKNIL [E2R], KYHVPTWLQNTHVYSWPKNKKNIL [E2Y] is lower in protein stability index: 3.4 for the first, 2.07 for the second.

Compared with KSHVPTWLQNTHVYSWPKNKKNIL [E2S], KHHVPTWLQNTHVYSWPKNKKNIL [E2H] is lower in protein stability index: 2.53 for the first, 2.08 for the second.

First: KPHVPTWLQNTHVYSWPKNKKNIL [E2P]
Second: KNHVPTWLQNTHVYSWPKNKKNIL [E2N]
The protein stability index of the first is higher: 2.25 for the first, 2.14 for the second.

First: KGHVPTWLQNTHVYSWPKNKKNIL [E2G]
Second: KEHVPTWCQNTHVYSWPKNKKNIL [L8C]
The protein stability index of the first is lower: 1.93 for the first, 3.02 for the second.

Going from KEHVPTWYQNTHVYSWPKNKKNIL [L8Y] to KEHVPTWGQNTHVYSWPKNKKNIL [L8G], the protein stability index rises from 2.73 to 3.21.

Going from KEHVPTWEQNTHVYSWPKNKKNIL [L8E] to KEHVPTWMQNTHVYSWPKNKKNIL [L8M], the protein stability index falls from 3.88 to 3.34.

Going from KEHVPTWFQNTHVYSWPKNKKNIL [L8F] to KEHVPTWTQNTHVYSWPKNKKNIL [L8T], the protein stability index rises from 2.2 to 3.45.
